Reference: publication PMC3049835 (Analytical biochemistry, 2011)

B1: SphK1 (Homo sapiens) (protein)
chain: MSAQVLGFLRSWTPLPLAAPRGPAAAGNDAGAPAATAPGGEGEPHSRPCDARLGSTDKELKAGAAATGSAPTAPGTPWQREPRVEVMDPAGGPRGVLPRPCRVLVLLNPRGGKGKALQLFRSHVQPLLAEAEISFTLMLTERRNHARELVRSEELGRWDALVVMSGDGLMHEVVNGLMERPDWETAIQKPLCSLPAGSGNALAASLNHYAGYEQVTNEDLLTNCTLLLCRRLLSPMNLLSLHTASGLRLFSVLSLAWGFIADVDLESEKYRRLGEMRFTLGTFLRLAALRTYRGRLAYLPVGRVGSKTPASPVVVQQGPVDAHLVPLEEPVPSHWTVVPDEDFVLVLALLHSHLGSEMFAAPMGRCAAGVMHLFYVRAGVSRAMLLRLFLAMEKGRHMEYECPYLVYVPVVAFRLEPKDGKGVFAVDGELMVSEAVQGQVHPNYFWMVSGCVEPPPSWKPQQMPPPEEPL
B2: SphK2 (Homo sapiens) (protein)
chain: MNGHLEAEEQQDQRPDQELTGSWGHGPRSTLVRAKAMAPPPPPLAASTPLLHGEFGSYPARGPRFALTLTSQALHIQRLRPKPEARPRGGLVPLAEVSGCCTLRSRSPSDSAAYFCIYTYPRGRRGARRRATRTFRADGAATYEENRAEAQRWATALTCLLRGLPLPGDGEITPDLLPRPPRLLLLVNPFGGRGLAWQWCKNHVLPMISEAGLSFNLIQTERQNHARELVQGLSLSEWDGIVTVSGDGLLHEVLNGLLDRPDWEEAVKMPVGILPCGSGNALAGAVNQHGGFEPALGLDLLLNCSLLLCRGGGHPLDLLSVTLASGSRCFSFLSVAWGFVSDVDIQSERFRALGSARFTLGTVLGLATLHTYRGRLSYLPATVEPASPTPAHSLPRAKSELTLTPDPAPPMAHSPLHRSVSDLPLPLPQPALASPGSPEPLPILSLNGGGPELAGDWGGAGDAPLSPDPLLSSPPGSPKAALHSPVSEGAPVIPPSSGLPLPTPDARVGASTCGPPDHLLPPLGTPLPPDWVTLEGDFVLMLAISPSHLGADLVAAPHARFDDGLVHLCWVRSGISRAALLRLFLAMERGSHFSLGCPQLGYAAARAFRLEPLTPRGVLTVDGEQVEYGPLQAQMHPGIGTLLTGPPGCPGREP

Legend:
SphK1 = SphK1 (Homo sapiens, UniProt Q9NYA1); conditions: read-out: Km with respect to sphingosine, SphK1, previously reported; cited from earlier work
[1] = substrate: Nc1ncnc2c1ncn2[C@@H]1O[C@H](COP(=O)(O)OP(=O)(O)OP(=O)(O)O)[C@@H](O)[C@H]1O; assay: purified protein, by the assay type; conditions: other: FlashPlate; 5–10 μM sphingosine, ATP 0–600 μM; 37.0 °C
[2] = substrate: CCCCCCCCCCCCC/C=C/[C@@H](O)[C@@H](N)CO; assay: 96-well FlashPlate SphK assay, SphK2; assay type: biochemical; conditions: other: FlashPlate; ATP fixed at 250 μM, sphingosine 0–50 μM; 37.0 °C
[3] = substrate: CCCCCCCCc1ccc(CCC(N)(CO)CO)cc1; assay: 96-well FlashPlate SphK assay, SphK2; assay type: biochemical; conditions: other: FlashPlate; FTY720 as selective SphK2 substrate; 37.0 °C

Row | Molecule | Km (SphK1) [µM] | Km [1] [µM] | Km [2] [µM] | Km [3] [µM]
1 | CCCCCCCCCCCCC/C=C/[C@@H](O)[C@@H](N)CO [sphingosine, D-erythro-sphingosine] | 5 to 17 | – | – | –
2 | B1 | – | 125 | – | –
3 | B2 | – | 79 | 6 | 22
